Experimental data from article PMC4137731, “C-Terminal Domain Swapping of SSB Changes the Size of the ssDNA Binding Site”.

How the values were obtained:
Details in all cases: protein: recombinant; tags: none (untagged); chain copies: 4; label: 5' 32P
KpSSB [1] = target: T1, KpSSB (Klebsiella pneumoniae subsp. pneumoniae …, UniProt A6TGW7 1-174); assay: EMSA; monomer conc.; 1 complex; 20 mM Tris-HCl pH 8.0, 100 mM NaCl, 25°C 30 min, 1.7 nM DNA, protein 0-5000 nM; native 8% PAGE in TBE at 4°C
StSSB [2] = target: T2, StSSB (Salmonella enterica serovar Typhimurium …, UniProt P0A2F6 1-176); assay: EMSA; monomer conc.; 2 complexes; 20 mM Tris-HCl pH 8.0, 100 mM NaCl, 25°C 30 min, 1.7 nM DNA, protein 0-5000 nM; native 8% PAGE in TBE at 4°C
StSSB [3] = target: T2, StSSB; assay: EMSA; monomer conc.; 1 complex; 20 mM Tris-HCl pH 8.0, 100 mM NaCl, 25°C 30 min, 1.7 nM DNA, protein 0-5000 nM; native 8% PAGE in TBE at 4°C
PaSSB [4] = target: T3, PaSSB (Pseudomonas aeruginosa PAO1, UniProt P40947 1-165); assay: EMSA; monomer conc.; 2 complexes; 20 mM Tris-HCl pH 8.0, 100 mM NaCl, 25°C 30 min, 1.7 nM DNA, protein 0-5000 nM; native 8% PAGE in TBE at 4°C
PaSSB [5] = target: T3, PaSSB; assay: EMSA; monomer conc.; 1 complex; 20 mM Tris-HCl pH 8.0, 100 mM NaCl, 25°C 30 min, 1.7 nM DNA, protein 0-5000 nM; native 8% PAGE in TBE at 4°C
KpSSB [6] = target: T1, KpSSB; assay: EMSA; monomer conc.; 2 complexes; 20 mM Tris-HCl pH 8.0, 100 mM NaCl, 25°C 30 min, 1.7 nM DNA, protein 0-5000 nM; native 8% PAGE in TBE at 4°C
KpSSB [7] = target: T1, KpSSB; assay: EMSA; no band shift up to 5000 nM; 20 mM Tris-HCl pH 8.0, 100 mM NaCl, 25°C 30 min, 1.7 nM DNA, protein 0-5000 nM; native 8% PAGE in TBE at 4°C

TTTTTTTTTTTTTTTTTTTTTTTTTTTTTTTTTTTTTTTTTTTTTTTTTT (ssDNA) [dT50]
apparent K (half saturation) (KpSSB [1]): 110 ± 20 nM
apparent K (half saturation) (StSSB [2]): 440 ± 50 nM

TTTTTTTTTTTTTTT (ssDNA) [dT15]
apparent K (half saturation) (StSSB [3]): 650 ± 120 nM

B1: dT65 (ssDNA)
DNA: TTTTTTTTTTTTTTTTTTTTTTTTTTTTTTTTTTTTTTTTTTTTTTTTTTTTTTTTTTTTTTTTT
apparent K (half saturation) (PaSSB [4]): 550 ± 70 nM

TTTTTTTTTTTTTTTTTTTTTTTTTTTTTTTTTTTTTTTTTTTTT (ssDNA) [dT45]
apparent K (half saturation) (KpSSB [1]): 100 ± 10 nM
apparent K (half saturation) (PaSSB [5]): 780 ± 160 nM
apparent K (half saturation) (StSSB [2]): 440 ± 60 nM

TTTTTTTTTTTTTTTTTTTTTTTTT (ssDNA) [dT25]
apparent K (half saturation) (KpSSB [1]): 200 ± 20 nM
apparent K (half saturation) (PaSSB [5]): 1700 ± 250 nM

B2: dT55 (ssDNA)
DNA: TTTTTTTTTTTTTTTTTTTTTTTTTTTTTTTTTTTTTTTTTTTTTTTTTTTTTTT
apparent K (half saturation) (PaSSB [5]): 820 ± 90 nM
apparent K (half saturation) (KpSSB [6]): 100 ± 20 nM

TTTTTTTTTTTTTTTTTTTT (ssDNA) [dT20]
apparent K (half saturation) (StSSB [3]): 450 ± 80 nM
binding result (KpSSB [7]): no binding

TTTTTTTTTTTTTTTTTTTTTTTTTTTTTTTTTTT (ssDNA) [dT35]
apparent K (half saturation) (KpSSB [1]): 220 ± 30 nM
apparent K (half saturation) (PaSSB [5]): 950 ± 180 nM

B3: dT60 (ssDNA)
DNA: TTTTTTTTTTTTTTTTTTTTTTTTTTTTTTTTTTTTTTTTTTTTTTTTTTTTTTTTTTTT
apparent K (half saturation) (KpSSB [6]): 100 ± 10 nM
apparent K (half saturation) (PaSSB [4]): 810 ± 110 nM

TTTTTTTTTTTTTTTTTTTTTTTTTTTTTTTTTTTTTTTT (ssDNA) [dT40]
apparent K (half saturation) (StSSB [3]): 420 ± 80 nM

TTTTTTTTTTTTTTTTTTTTTTTTTTTTTT (ssDNA) [dT30]
apparent K (half saturation) (StSSB [3]): 420 ± 60 nM
